In US20220089743A1:

How the values were obtained:
Test in all cases: cell-based or functional assay
[1] = target: HLA-DQ2.5 on IHW09023 cells loaded with 33 mer gliadin peptide (human; wheat)
[2] = target: HLA-DQ2.5 on IHW09023 cells loaded with gamma 4d gliadin peptide (human; wheat)
[3] = target: HLA-DQ2.5 on IHW09023 cells loaded with gamma 4a gliadin peptide (human; wheat)
[4] = target: HLA-DQ2.5 on IHW09023 cells loaded with omega1/2 gliadin peptide (human; wheat)
[5] = target: HLA-DQ2.5 on IHW09023 cells loaded with gamma 1 gliadin peptide (human; wheat)
[6] = target: HLA-DQ2.5 on IHW09023 cells loaded with gamma 2 gliadin peptide (human; wheat)
[7] = target: HLA-DQ2.5 on IHW09023 cells loaded with BC hordein peptide (human; barley)
[8] = target: HLA-DQ2.5 on IHW09023 cells loaded with gamma 3 gliadin peptide (human; wheat)

IC50, α1a gliadin TCR, 250 nM 33mer gliadin [1]: 0.0106 µg/mL
IC50, α1b gliadin TCR, 250 nM 33mer gliadin [1]: 0.0464 µg/mL
IC50, α2 gliadin TCR, 250 nM 33mer gliadin [1]: 0.00175 µg/mL
IC50, γ4d gliadin TCR, 100 µM γ4d gliadin [2]: > 20 µg/mL
IC50, γ4a gliadin TCR, 25 µM γ4a gliadin [3]: > 20 µg/mL
IC50, ω1 gliadin TCR, 25 µM ω1/2 gliadin [4]: 0.00312 µg/mL
IC50, ω2 gliadin TCR, 250 nM ω1/2 gliadin [4]: > 0.5 µg/mL
IC50, γ1 gliadin TCR, 250 nM γ1 gliadin [5]: > 20 µg/mL
IC50, γ2 gliadin TCR, 250 nM γ2 gliadin [6]: > 20 µg/mL
IC50, BC hordein TCR, 250 nM BC hordein [7]: > 20 µg/mL
IC50, γ3 gliadin TCR, 100 µM γ3 gliadin [8]: 3.1 µg/mL
B1: DQN034425 (antibody, V domains shown)
VH: QVQLVESGGGVVQPGRSLRLSCAASGFTFSSSYWMCWVRQAPGQGLEWMGCVYGGSDTTYYASWTKGRFTISRDNSKNTLYLQMNSLRAEDTAVYYCARDPLNYYYYGELNLWGQGTLVTVSS
VL: DIQMTQSPSSLSASVGDRVTITCQATENIYSGLAWYQQKPGKAPKLLIYYVSTLASGIPARFSGSGSGTDFTLTISSLEPEDFAVYYCQTYHDISNVTFGQGTKVEIK
